Assay results from patent US9120851B2, “Human antibodies to human angiopoietin-like protein 4” (Regeneron Pharmaceuticals, Inc., priority 2009, dated 2015).

B1: H1H624P: anti-hANGPTL4 antibody, HCVR/LCVR SEQ ID NOs 210/212 (antibody, V domains shown)
VH: EVQLVESGGGLVQPGGSLRLSCAASEFIFSSYAMNWVRQAPGKGLEWVSVISGSGDSKYYADSVKGRFTISRDNSKNTLYLQMNSLRVEDTAVYYCAKDGKDRYGFYYNFYGMDVWGQGTTVTVS
VL: DIQMTQSPSFLSASVGDRVTITCWASQGISSYLAWYQQKPGKAPKILIYAASTLQSGVPSRFSASGSGTEFTLTISSLQPEDFATYHCQQLNSYPFTFGPGTKVDIK
B2: H1H295P: anti-hANGPTL4 antibody, HCVR/LCVR SEQ ID NOs 186/188 (antibody, V domains shown)
VH: EVQLVESGGGLVQPGGSLRLSCAASGFTFSTYDMHWVRQAPGKGLEWVSAIGSAGDTYYPGSVKGRFTISRDNAKSSLFLQMNSLRAGDTALYYCARGDSRNYFVGDYFDYWGQGTLVTVSS
VL: DIQMTQSPSTLSASVGDRVTITCRASQSIGTWLAWYQQKPGKAPKILIYKASSLEGGVPSRFSGSGSGTEFTLTISSLQPDDFANYYCQQYNSFYRTFGQGTKVEIK
B3: H1H257P: anti-hANGPTL4 antibody, HCVR/LCVR SEQ ID NOs 18/20 (antibody, V domains shown)
VH: EVQLVESGGGLVQPGGSLRLSCAASGFTFSSYDMHWVRQVAGKGLEWVSAIGTAGDTYYPVSVKGRFTISRENAKNSLYLHMNSLRAGDTAVYFCARGDSRNYYVGDYFDYWGQGTLVTVSS
VL: DIQMTQSPSTLSASVGDRVTITCRASQSISRWLAWYQQKPGKAPKVLIYQASNLESGVPSRFSGSGSGTEFTLTISSLQPDDFATYYCQQYDSYSRAFGRGTKVEIK
B4: H1H291P: anti-hANGPTL4 antibody, HCVR/LCVR SEQ ID NOs 138/140 (antibody, V domains shown)
VH: EVQLVESGGGLVQPGGSLRLSCAASGFTFSTYDMHWVRQGLGKGLEWVSAIGSAGDTYYPGSVKGRFTISRDNAKSSLFLHMNSLRAGDTALYYCARGDSRNYFVGDYFDYWGQGTLVTVSS
VL: DIQMTQSPSTLSASIGDRVTITCRASQSISSWLAWYQQKPGKAPKVLIYKASSLEAGVPSRFSGSGSGTEFTLTISSLQPDDFASYYCQQYSSYSRTFGQGTKVEIK
B5: H1H292P: anti-hANGPTL4 antibody, HCVR/LCVR SEQ ID NOs 162/164 (antibody, V domains shown)
VH: EVQLVESGGGLVQPGGSLRLSCVASGFTFSSYDMHWVRQLPGKGLEWVSAIGVAGDTYYPASVKGRFTISRENAKNSLYLQMNSLRAGDTAVYYCARGDSGNYYDGDYFDFWGQGTLVTVSS
VL: DIQMTQSPSTLSASVGDRVTITCRASQSINRWLAWYQQKPGKAPKVLIYKASNLESGVPSRFSGSGSGTEFTLTISSLQPDDFATYYCQQYDSYFRTFGQGTKVEIK
B6: H1H285P: anti-hANGPTL4 antibody, HCVR/LCVR SEQ ID NOs 114/116 (antibody, V domains shown)
VH: EVQLVESGGGLVQPGGSLRLSCAASGFTFSRYDMHWVRQVTGKGLEWVSGIGTAGDTYYPGSVKGRFTISRENDKNSLYLQMNSLRVGDTAVYYCARGDSKNYYVGDYFDYWGQGTLVTVSS
VL: DIQMTQSPSTLSASVGDRVTFTCRASHSIGNWLAWYQQKPGKAPKVLIYEASSLEDGVPSRFSGSGSGTEFTLTISSLQPDDFATYYCQQYDTYFRTFGQGTKVEIK
B7: H1H283P: anti-hANGPTL4 antibody, HCVR/LCVR SEQ ID NOs 66/68 (antibody, V domains shown)
VH: EVQLVESGGGLVQPGGSLRLSCAASGFTFSSYDMHWVRQVAGKGLEWVSAIGTAGDTYYPVSVKGRFTISRENAKNSLYLHMNSLRAGDTAVYFCARGDSRNYYVGDYFDYWGQGTLVTVSS
VL: DIQMTQSPSTLSASVGDRVTITCRASQSISRWLAWYQQKPGKAPKVLIYKASNLESGVPSRFSGSGSGTEFTLTISSLQPDDFATYYCQQYNSYSRTFGQGTKVEIK
B8: H1H638P: anti-hANGPTL4 antibody, HCVR/LCVR SEQ ID NOs 258/260 (antibody, V domains shown)
VH: EVQLVESGGGLVQPGGSLRLSCVASGFTFSSYDMHWVRQVAGKGLEWVAAIGTAGDTYYPVSVKGRFTISRENAKNSLSLHMNSLRAGDTAVYYCARGDSRNYYVGDYFDYWGQGTLVTVSS
VL: DIQMTQSPSTLSASVGDRVTITCRASQSISRWLAWYQQKPGKAPKVLIYKASSLKSGVPSRFSGSGSGTEFTLTISSLQSDDFATYYCQQYNSYSRTFGQGTKVEIK
B9: H1H653P: anti-hANGPTL4 antibody, HCVR/LCVR SEQ ID NOs 306/308 (antibody, V domains shown)
VH: QVQLVESGGGVVQPGRSLRLSCVASGFTFSSYGMHWVRQAPGKGLEWMAVIWYDGSNKYFADSVKDRFTISRDNSKNTLYLQMNTLRPDDTAVYYCVKADAPLLIYGVDVWGQGTTVTVS
VL: DIQMTQSPSSLSASVGDRVTITCRASQGIRNDLGWYQEKPGKAPKRLIYFASSLQSGVPSRFSGSGSGTEFTLTISSLQPEDFATYYCLQHNSYPYTFGQGTKLEIK
B10: H1H236N2: anti-hANGPTL4 antibody, HCVR/LCVR SEQ ID NOs 458/394 (antibody, V domains shown)
VH: EVQLVESGGGLVQPGRSLRLSCAASGFTFDDYAMHWVRQAPGKGLEWVSGISWNSGSIVYADSVKGRFTISRDNAKNSLYLQMNSLISEDTALYYCAKDESSSSGNWFDPWGQGTLVTVSS
VL: EVVMTQSPATLSVSPGERATLSCRASQSVSSNLAWYQQKPGQAPRLLIYGASTRATGIPARFSGSGSGTEFTLTISSLQSEDFAVYYCQEYNNWITFGQGTRLEIK

test system: C57BL/6 mice given hANGPTL4-mFc; format: in vivo; conditions: antibody 5 mg/kg s.c.; 24 h later hANGPTL4-mFc 25 μg/mouse i.v.; bled 30 min after; mean±SEM
Description: In another set of experiments, selected anti-hANGPTL4 antibodies were tested for their ability to inhibit hANGPTL4-induced increase of triglyceride levels. Measurements of total cholesterol, LDL, NEFA-C and HDL were also made. Briefly, C57BL/6 mice were put into groups of five mice each for each antibody tested. Antibodies were administered at 5 mg/kg dose by subcutaneous injection. Control group I, i.e., mice that received neither anti-hANGPTL4 antibodies nor hANGPTL4, were administered with PBS. Twenty-four hours post-injection of antibody, hANGPTL4-mFc (SEQ ID NO:480) was administered (i.v.) at a dose of 25 μg/mouse to each antibody group. Mice were bled at 30 min after hANGPTL4-mFc injection and lipid levels were determined by ADVIA® 1650 Chemistry System (Siemens). Averages were calculated for each of the measurements of triglycerides, total cholesterol (Total-C), LDL, NEFA-C and HDL for each antibody or control group. Levels of circulating anti-hANGPTL4 antibodies (Serum Ab) were also determined using a standard ELISA assay. Briefly, plates were coated with a goat anti-human Fc antibody (Sigma-Aldrich) to capture Serum Ab. Serum was then added to the plates and captured anti-hANGPTL4 antibodies were detected by chemiluminescence using a horseradish peroxidase (HRP) conjugated goat anti-human IgG antibody (Sigma-Aldrich). Control I: Mice that received PBS, but neither anti-hANGPTL4 antibodies nor hANGPTL4-mFc. Control II: Mice that received a human antibody specific for CD20 (i.e., the mAb having the sequence of 2F2 clone disclosed in US 2008/0260641) and hANGPTL4-mFc.

B1 and B2 are within error of each other in HDL: 35.40 ± 2.68 mg/dL for the first, 39.70 ± 3.13 mg/dL for the second.

B3 and B4 are within error of each other in HDL: 41.38 ± 3.24 mg/dL for the first, 38.24 ± 2.14 mg/dL for the second.

Going from B5 to B6, the HDL rises from 39.44 ± 1.68 mg/dL to 42.20 ± 0.91 mg/dL.

B7 and B8 are within error of each other in HDL: 40.30 ± 0.72 mg/dL for the first, 39.54 ± 1.65 mg/dL for the second.

First: B9
Second: B10
The HDL of the first is higher: 40.10 ± 2.72 mg/dL for the first, 33.78 ± 1.13 mg/dL for the second.

B1 and B2 are within error of each other in LDL: 4.36 ± 0.92 mg/dL for the first, 4.04 ± 0.40 mg/dL for the second.

Compared with B3, B4 is lower in LDL: 5.30 ± 0.36 mg/dL for the first, 3.84 ± 0.12 mg/dL for the second.

B5 and B6 are within error of each other in LDL: 3.96 ± 0.15 mg/dL for the first, 3.72 ± 0.44 mg/dL for the second.

B7 and B8 are within error of each other in LDL: 4.62 ± 0.39 mg/dL for the first, 4.14 ± 0.18 mg/dL for the second.

B9 and B10 are within error of each other in LDL: 3.84 ± 0.32 mg/dL for the first, 4.26 ± 0.25 mg/dL for the second.

First: B1
Second: B2
The NEFA-C of the first is lower: 0.86 ± 0.07 mg/dL for the first, 1.12 ± 0.04 mg/dL for the second.

Going from B3 to B4, the NEFA-C rises from 0.97 ± 0.03 mg/dL to 1.11 ± 0.04 mg/dL.

B5 and B6 are within error of each other in NEFA-C: 1.06 ± 0.06 mg/dL for the first, 0.97 ± 0.06 mg/dL for the second.

B7 and B8 are within error of each other in NEFA-C: 1.13 ± 0.05 mg/dL for the first, 1.06 ± 0.05 mg/dL for the second.

B9 and B10 are within error of each other in NEFA-C: 1.04 ± 0.1 mg/dL for the first, 1.11 ± 0.18 mg/dL for the second.

B1 and B2 are within error of each other in Total-C: 72.80 ± 5.49 mg/dL for the first, 74.60 ± 4.82 mg/dL for the second.

First: B3
Second: B4
The Total-C of the first is higher: 84.40 ± 3.53 mg/dL for the first, 71.20 ± 3.26 mg/dL for the second.

B5 and B6 are within error of each other in Total-C: 74.40 ± 2.11 mg/dL for the first, 76.40 ± 1.75 mg/dL for the second.

B7 and B8 are within error of each other in Total-C: 75.80 ± 1.53 mg/dL for the first, 73.80 ± 2.78 mg/dL for the second.

B9 and B10 are within error of each other in Total-C: 74.20 ± 4.49 mg/dL for the first, 72.40 ± 1.81 mg/dL for the second.

First: B1
Second: B2
The Triglycerides of the first is lower: 81.20 ± 9.26 mg/dL for the first, 104.80 ± 9.44 mg/dL for the second.

B3 and B4 are within error of each other in Triglycerides: 115.80 ± 6.43 mg/dL for the first, 111.00 ± 7.51 mg/dL for the second.

B5 and B6 are within error of each other in Triglycerides: 85.80 ± 7.00 mg/dL for the first, 91.40 ± 11.99 mg/dL for the second.

B7 and B8 are within error of each other in Triglycerides: 113.60 ± 8.74 mg/dL for the first, 102.80 ± 10.75 mg/dL for the second.

Compared with B9, B10 is higher in Triglycerides: 88.00 ± 13.52 mg/dL for the first, 151.80 ± 9.26 mg/dL for the second.
